The text below walks through data of the RNAGym collection of RNA variant scans (doi:10.1073/pnas.2313332121).

The chains are these.
B1: TPR t1 (parent)
chain: GACCAAUCUGCCCUCAGAGCUCGAGAACAUCUUCGGAUGCAGAGGAGGCAGGCUUCGGUGGCGCGAUAGCGCCAACGUCCUCAACCUCCAAUGCAUCCCACCACAUGAUGAUGCCUGAAGAGCCUUGGUUUUUUG

The variants in the series derive from B1. In words: polymerase ribozyme fitness, log enrichment relative to wild type (log ratio); higher = more active; in vitro selection for triplet polymerase activity. In short, it runs like this:
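PCR was used to build mutant libraries for each subunit of a heterodimeric triplet polymerase ribozyme, which were then transcribed. A single in vitro selection round, in triplicate, used a frozen incubation at −7 °C and recovered extended constructs by gel excision, streptavidin beads and RT-PCR. Fitness is the logarithm of genotype enrichment relative to wild-type enrichment, averaged over replicates with inverse-variance weights. The logarithm is base 2, and after Illumina sequencing only genotypes with ≥10 input reads and ≥1 read per output were kept.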
In the case of C79U G128C, the “polymerase ribozyme fitness (log ratio)” value was -2.48. Consider U78C A84C G113U G128A, for which the “polymerase ribozyme fitness (log ratio)” value is -4.29.

Turning to U78A G110A, the “polymerase ribozyme fitness (log ratio)” value was -1.32. Regarding U78C A83U G117C A119U, the “polymerase ribozyme fitness (log ratio)” value was -3.98.

C80A U106A: the “polymerase ribozyme fitness (log ratio)” value was -3.28. For G77A C123U, the “polymerase ribozyme fitness (log ratio)” value was found to be 1.1.

With C79A C115G, the “polymerase ribozyme fitness (log ratio)” value was -2.56.

Consider G77U C104G, for which the “polymerase ribozyme fitness (log ratio)” value is -6.6. U78A U87A: the “polymerase ribozyme fitness (log ratio)” value is -0.201. Regarding C80U A119G, the “polymerase ribozyme fitness (log ratio)” value came out at 0.683. Regarding C80A A121C, the “polymerase ribozyme fitness (log ratio)” value was -1.11. Regarding U78A A95U U112G U133A, the “polymerase ribozyme fitness (log ratio)” value turned out to be 0.61. The value for G77U U78A A118U was -3.74; that for C79U A90C G93A was -2.09; that for G77A U78G was -0.219. Turning to U78C G122A, the “polymerase ribozyme fitness (log ratio)” value was -1.22. Regarding U78A C101G, the “polymerase ribozyme fitness (log ratio)” value is -2.13. C80U C86U C114G C124G U125A: the “polymerase ribozyme fitness (log ratio)” value is -3.38. As for C79U A119U, the “polymerase ribozyme fitness (log ratio)” value was -0.48. In the case of U78G G120U, the “polymerase ribozyme fitness (log ratio)” value was -0.202. The same measure for U81A C104U: -0.577.

Take C79A G93A G110U: the “polymerase ribozyme fitness (log ratio)” value was -4.93. For the variant U78C C89U G93U, the “polymerase ribozyme fitness (log ratio)” value was -1.09. C80A A118G: the “polymerase ribozyme fitness (log ratio)” value is -3.23.

On to C79A C88A, for which the “polymerase ribozyme fitness (log ratio)” value was -1.22. With C79A C88G, the “polymerase ribozyme fitness (log ratio)” value is -2.33. With C80U C89A A119U, the “polymerase ribozyme fitness (log ratio)” value was -2.89.

Take U78C A83C G113U: the “polymerase ribozyme fitness (log ratio)” value was -3.26. The value for U78G G128A was -1.19; that for C79G G110A was -3.53. In the case of C79G G110C, the “polymerase ribozyme fitness (log ratio)” value is -6.49. Turning to C79G A121C, the “polymerase ribozyme fitness (log ratio)” value came out at 0.144.

Consider U78C U116G G117A, for which the “polymerase ribozyme fitness (log ratio)” value is -2.14. As to C80G A100C U131A, the “polymerase ribozyme fitness (log ratio)” value was -5.8.

For the variant G77U A95C C102A, the “polymerase ribozyme fitness (log ratio)” value is -3.06.

For the variant C79A C80G, the “polymerase ribozyme fitness (log ratio)” value is -5.91. As to U78A C94A, the “polymerase ribozyme fitness (log ratio)” value is -0.841. Regarding U78C A103U, the “polymerase ribozyme fitness (log ratio)” value was -5.46.

In the case of C79A U92C G110C U125G, the “polymerase ribozyme fitness (log ratio)” value was -5.23. Regarding C80U A105C U112G G120C, the “polymerase ribozyme fitness (log ratio)” value was -3.27. Consider U78A C79U U112A U131G, for which the “polymerase ribozyme fitness (log ratio)” value was 0.67. For the variant U78C C88A U106G C114G, the “polymerase ribozyme fitness (log ratio)” value is -3.35.

For the variant U81A C89A, the “polymerase ribozyme fitness (log ratio)” value was -2.06. The value for C79G A90C U112A was -3.88; that for U78C C101U was -0.647. The value for U81A G110U was -2.6; that for C79A G117U G120C was -3.42.

As for U78C C80A U116G G120C C123A, the “polymerase ribozyme fitness (log ratio)” value was -1.86. The same measure for U78C C79U U106C: 0.0469; for U78A A118G: -0.761; for C79A A84G: -3.26. Regarding C80G C124G, the “polymerase ribozyme fitness (log ratio)” value was -4.49.

For the variant C80A U112G, the “polymerase ribozyme fitness (log ratio)” value was -4.16. As for C79U U130A, the “polymerase ribozyme fitness (log ratio)” value is -1.2. G77A U109C: the “polymerase ribozyme fitness (log ratio)” value was -3. The same measure for C79U C80U U112A: -2.98; for C79U A84G: -0.834. Regarding U81A C101A G110C U131G G135U, the “polymerase ribozyme fitness (log ratio)” value is -7.53. With U78A C89G, the “polymerase ribozyme fitness (log ratio)” value was -1.56.

With C79A C115G A118U, the “polymerase ribozyme fitness (log ratio)” value is -4.7. The value for C79A U116G was -4.15; that for C79U A105C was -1.36; that for C79G C101A was -3.09. Take C79G C101U: the “polymerase ribozyme fitness (log ratio)” value was -1.49.

U78C C104A: the “polymerase ribozyme fitness (log ratio)” value is -1.61. With U78C C104U, the “polymerase ribozyme fitness (log ratio)” value stood at 0.332. For U78C G135U, the “polymerase ribozyme fitness (log ratio)” value is -1.27. The same measure for C79A G117U: -3.95; for C79G C114G: -5.17; for G77C U96C G117A: -2.46. In the case of U78C C85U U112A, the “polymerase ribozyme fitness (log ratio)” value amounted to 0.233. With C79G C123G U133A, the “polymerase ribozyme fitness (log ratio)” value turned out to be 0.663. U78G C88G: the “polymerase ribozyme fitness (log ratio)” value was -0.734. The same measure for G77U G113A G135A: -1.34; for U78G C82G: -0.36. U78C U87A U130C: the “polymerase ribozyme fitness (log ratio)” value came out at 0.517. Consider C80A G135U, for which the “polymerase ribozyme fitness (log ratio)” value was -3.76.

In the case of U78C C102A G117C, the “polymerase ribozyme fitness (log ratio)” value is -6.34. In the case of U78A C85U U112A, the “polymerase ribozyme fitness (log ratio)” value amounted to 0.505. As to C79G G127A, the “polymerase ribozyme fitness (log ratio)” value is -2.38. For C79G G127U, the “polymerase ribozyme fitness (log ratio)” value is -2.87. As for G77C C86U A90C U125A, the “polymerase ribozyme fitness (log ratio)” value is -1.83. The same measure for U78C A121C: 1.83.
